The values below come from article PMC5217639, “Structural prediction of the interaction of the tumor suppressor p27^KIP1 with cyclin A/CDK2 identifies a novel catalytically relevant determinant” (BMC Bioinformatics, 2017).

Test [1] has as its target T1, cyclin A/CDK2 (Homo sapiens, UniProt P24941).
T1 construct: made in house; host or cells: Sf9 insect cells (Spodoptera frugiperda), baculovirus co-infection
Nature of the test: In vitro kinase assay of cyclin A/CDK2 on biotinylated p27KIP1 substrate peptides (Michaelis-Menten kinetics). The test is classed as biochemical. The conditions noted are these: for Relative rate (maximal relative rate of phosphoryl transfer) / Km: 50 μM ATP and 1 μCi 32P-γ-ATP, 10 min, 30°C, 50 mM Tris-HCl pH 7.5, 10 mM MgCl2, SAM2 membrane, scintillation counting, Michaelis-Menten fit (GraphPad Prism), Fig. 5: mean values ± SD of 5 experiments performed in duplicates; for Km: peptide substrate. Here is the method: Fig. 5 Analysis of cyclin A/CDK2 kinase activity on p27^KIP1 substrate peptides. Cyclin A/CDK2 Kinase purified from Sf9 cells was incubated with increasing concentrations of p27^KIP1 wild type and the R194A mutant peptide as indicated. Phosphorylation of the peptides was monitored after immobilisation on SAM2 membrane by scintillation counting and analysis by GraphPad Prism software. Shown are mean values ± SD of 5 experiments performed in duplicates
Human cyclin A/CDK2 complexes were expressed in SF9 insect cells (Spodoptera frugiperda) upon infection with recombinant baculo viruses encoding either cyclin A or CDK2. The complex was purified using the GST tag of cyclin A [49]. In vitro kinase assays of cyclin A/CDK2 were performed in kinase buffer (50 mM Tris-HCl, pH 7.5, 10 mM MgCl2, 1 mM EGTA, 1 mM DTT, 40 mM α-glycero-phosphate, 20 mM p-nitrophenylphosphate, 0.1 mM sodium vanadate, 0.01% BriJ 35) containing 50 μM ATP and 1 μCi ^32P-γ-ATP for 10 min at 30°C in the presence of increasing amount of biotinylated p27^KIP1 wild type or R194A (an arginine to alanine substitution at position 194) peptides as substrates. The assays were terminated by adding 12.5 μl 7.5 M guanidine hydrochloride. The peptides were immobilized on SAM2 Biotin Capture Membranes (Promega), extensively washed as described in the manufacturer’s protocol, and then monitored for radioactivity in a liquid scintillation counter to calculate the specific kinase activity. Kinetic parameters were determined with GraphPad Prism software built-in “Enzyme kinetic Michaelis-Menten”. The sequence of the p27^KIP1 wild type peptide corresponds to amino acids 180 to 194. The peptides were synthesized with a biotin-PEG-20-linker and purified by HPLC at the Peptide Specialty Laboratories, Heidelberg (Germany).

In test [2] the target is Human cyclin A/CDK2 complex (human) (UniProt P20248).

As a reminder, the Km is the substrate concentration at which the rate is half of its maximum. With “N180AGSVEQTPKKPGLA [Peptide R194A, p27KIP1 peptide with an arginine to alanine substitution at position 194]”, in test [1], the “Relative rate (maximal relative rate of phosphoryl transfer)” value was found to be 1.11 pmol/min and the Km was 81.4 µM.

With “p27^KIP1 R194A peptide (amino acids 180 to 194)”, in test [2], the Km of peptide phosphorylation by cyclin A/CDK2, in vitro kinase assay (32P-γ-ATP, 50 μM ATP, 10 min, 30°C) worked out at 81.4 µM; the Relative rate/Km of peptide phosphorylation by cyclin A/CDK2, in vitro kinase assay turned out to be 0.0135; the maximal relative rate of phosphoryl transfer by cyclin A/CDK2, in vitro kinase assay stood at 1.11 pmol/min.

In the case of “N180AGSVEQTPKKPGLR [wt, p27KIP1 wild type peptide corresponding to amino acids 180 to 194]”, in test [1], the “Relative rate (maximal relative rate of phosphoryl transfer)” value was determined as 2.21 pmol/min and the Km was found to be 93.6 µM. Besides, in test [1] (wt versus R194A, in words), the “turnover rate of the wt peptide relative to the R194A mutant peptide” value is given as “twice as high”.

As for “p27^KIP1 wild-type peptide (amino acids 180 to 194)”, in test [2], the Km of peptide phosphorylation by cyclin A/CDK2, in vitro kinase assay (32P-γ-ATP, 50 μM ATP, 10 min, 30°C) worked out at 93.6 µM; the Relative rate/Km of peptide phosphorylation by cyclin A/CDK2, in vitro kinase assay worked out at 0.0195; the maximal relative rate of phosphoryl transfer by cyclin A/CDK2, in vitro kinase assay worked out at 2.21 pmol/min.
